This note sets out measurements from patent US8512703B2, “Idiotypic vaccine” (Areta International S.R.L., priority 2007, dated 2013).

Holding throughout (test): iTopia ELISA-like peptide-HLA binding
(In general: An ELISA detects its analyte on a solid surface through an enzyme-linked reagent.)

Assay [1] addresses T1, Class I HLA molecule B*0801 in recombinant form (UniProt P01889 25-309, limits assumed).
T1 MHC heavy: not shown
An excerpt:
(§1) In order to identify and validate the immunogenic epitopes of the protein VK3-20, the iTopia™ high-throughput Epitope Discovery System was used (Beckman Coulter).

Assay [2] has as its target T2, Class I HLA molecule B*1501 in recombinant form (limits assumed).
T2 MHC heavy: not shown
From the text: as §1

For assay [3], the target named is T3, Class I HLA molecule A*2402 in recombinant form.
T3 MHC heavy: not shown
From the text: as §1

In assay [4] the target is T4, Class I HLA molecule A*0201 in recombinant form.
T4 construct: also called HLA-A*0201
T4 MHC heavy: not shown
From the text: as §1

The target in assay [5] is T5, Class I HLA molecule A*1101 in recombinant form (UniProt P04439 25-302).
T5 MHC heavy: not shown
From the text: as §1

Assay [6] deals with T6, Class I HLA molecule A*0101 in recombinant form.
T6 MHC heavy: not shown
From the text: as §1

Assay [7] has as its target Class I HLA molecule A*0301 in recombinant form (UniProt P04439 25-302).
From the text: as §1

For assay [8], the target named is Class I HLA molecule B*0702 in recombinant form (UniProt P01889 25-302).
From the text: as §1

B1: VK3-20 peptide No 2 IVLTQSPGT (peptide)
peptide: IVLTQSPGT
In the case of B1, the Bond results in assay [1] is 2%; in assay [2] it was 0%; in assay [3], 11%; in assay [4], 22%; in assay [5], 1%; in assay [6], 1%. Besides, the Bond results in assay [7] and in assay [8] was 1% throughout.

B2: VK3-20 peptide No 40 KPGQAPRLL (peptide)
peptide: KPGQAPRLL
As for B2, the Bond results in assay [1] amounted to 1%; in assay [2], 0%; in assay [4], 2%; in assay [5], 0%; in assay [6] it was 0%; in assay [7], 2%. For the same molecule, the Bond results in assay [8] was determined as 29%.

B3: VK3-20 peptide No 46 RLLIYGASS (peptide)
peptide: RLLIYGASS
For B3, the Bond results in assay [1] is 0%; in assay [2], 0%; in assay [3], 0%; in assay [4] it was 24%; in assay [6] it was 0%; in assay [7] it was 0%. Moreover, the Bond results in assay [8] was 0%.

B4: VK3-20 peptide No 28 IVSSSYLAW (peptide)
peptide: IVSSSYLAW
B4: the Bond results in assay [1] stood at 2%; in assay [2] it was 0%; in assay [3], 34%; in assay [5] it was 3%; in assay [6], 0%; in assay [7], 4%.

B5: VK3-20 peptide No 48 LIYGASSRA (peptide)
peptide: LIYGASSRA
Turning to B5, the Bond results in assay [1] worked out at 3%; in assay [2], 11%; in assay [4], 32%; in assay [5], 60%; in assay [6], 1%.

B6: VK3-20 peptide No 29 VSSSYLAWY (peptide)
peptide: VSSSYLAWY
As to B6, the Bond results in assay [1] was 1%; in assay [2] it was 2%; in assay [3] it was 12%; in assay [4], 4%; in assay [6], 44%; in assay [7], 2%. Further, in assay [8], the Bond results came to 1%.

B7: VK3-20 peptide No 26 SQIVSSSYL (peptide)
peptide: SQIVSSSYL
With B7, the Bond results in assay [1] was determined as 3%; in assay [2], 19%; in assay [3], 16%; in assay [4], 24%; in assay [5] it was 3%; in assay [6] it was 1%. The Bond results in assay [7] stood at 4%; in assay [8] it was 10%.

B8: VK3-20 peptide No 90 QQYGSSPRT (peptide)
peptide: QQYGSSPRT
With B8, the Bond results in assay [1] was 1%; in assay [2], 24%; in assay [4], 12%; in assay [5], 11%; in assay [6] it was 1%; in assay [7], 3%.

B9: VK3-20 peptide No 95 SPRTFGQGT (peptide)
peptide: SPRTFGQGT
Turning to B9, the Bond results turned out to be 2% in assay [1]; 2% in assay [2]; 12% in assay [3]; 0% in assay [4]; 0% in assay [5]; 1% in assay [6]. Moreover, the Bond results in assay [7] worked out at 2%; in assay [8] it was 41%.

B10: VK3-20 peptide No 3 VLTQSPGTL (peptide)
peptide: VLTQSPGTL
For B10, the Bond results amounted to 1% in assay [1]; 0% in assay [2]; 18% in assay [3]; 23% in assay [4]; 0% in assay [5]; 0% in assay [6]. For the same molecule, the Bond results was found to be 2% in assay [7] and 0% in assay [8].

B11: VK3-20 peptide No 42 GQAPRLLIY (peptide)
peptide: GQAPRLLIY
B11: the Bond results in assay [1] is 2%; in assay [2] it was 49%; in assay [3], 12%; in assay [4] it was 10%; in assay [6], 0%; in assay [7], 10%.

B12: VK3-20 peptide No 78 RLEPEDFAV (peptide)
peptide: RLEPEDFAV
Take B12: the Bond results in assay [1] amounted to 0%; in assay [2], 2%; in assay [4] it was 19%; in assay [5], 2%; in assay [6] it was 1%; in assay [7] it was 2%. For the same molecule, in assay [8], the Bond results was 4%.

B13: VK3-20 peptide No 25 ASQIVSSSY (peptide)
peptide: ASQIVSSSY
In the case of B13, the Bond results in assay [1] is 2%; in assay [2], 49%; in assay [3] it was 13%; in assay [7], 2%.

B14: VK3-20 peptide No 20 TLSCRASQI (peptide)
peptide: TLSCRASQI
notes: also called P20
As for B14, the Bond results was 1% in assay [2]; 14% in assay [3]; 28% in assay [4]; 2% in assay [5]; 1% in assay [6]; 2% in assay [7]. The Bond results in assay [8] turned out to be 3%.

B15: VK3-20 peptide No 32 SYLAWYQQK (peptide)
peptide: SYLAWYQQK
In the case of B15, the Bond results in assay [1] was 1%; in assay [2], 0%; in assay [3], 29%; in assay [4], 10%; in assay [5], 28%; in assay [6] it was 0%. Moreover, the Bond results in assay [7] stood at 23%; in assay [8], 4%.

B16: VK3-20 peptide No 5 TQSPGTLSF (peptide)
peptide: TQSPGTLSF
In the case of B16, the Bond results is 2% in assay [1]; 44% in assay [2]; 28% in assay [3]; 3% in assay [4]; 0% in assay [5]; 1% in assay [6]. Also, the Bond results in assay [7] is 1%; in assay [8], 0%.

B17: VK3-20 peptide No 72 FTLTISRLE (peptide)
peptide: FTLTISRLE
As for B17, the Bond results is 6% in assay [1]; 3% in assay [2]; 18% in assay [3]; 22% in assay [4]; 4% in assay [5]; 4% in assay [6]. Further, the results for the Bond results in assay [7] and in assay [8] were 2% and 11%, respectively.

B18: VK3-20 peptide No 97 RTFGQGTKV (peptide)
peptide: RTFGQGTKV
Take B18: the Bond results in assay [1] stood at 2%; in assay [2] it was 4%; in assay [4], 30%; in assay [5], 15%; in assay [6], 1%; in assay [7] it was 37%. Besides, the Bond results in assay [8] was found to be 1%.

B19: VK3-20 peptide No 86 VYYCQQYGS (peptide)
peptide: VYYCQQYGS
B19: the Bond results in assay [1] was determined as 0%; in assay [2] it was 1%; in assay [3] it was 21%; in assay [4] it was 1%; in assay [5], 1%; in assay [6], 1%. Further, the Bond results in assay [7] worked out at 0%.

B20: VK3-20 peptide No 33 YLAWYQQKP (peptide)
peptide: YLAWYQQKP
Regarding B20, the Bond results turned out to be 2% in assay [1]; 2% in assay [2]; 14% in assay [3]; 41% in assay [4]; 2% in assay [5]; 0% in assay [6]. Moreover, in assay [7], the Bond results stood at 4%.

B21: VK3-20 peptide No 47 LLIYGASSR (peptide)
peptide: LLIYGASSR
As to B21, the Bond results amounted to 1% in assay [1]; 33% in assay [4]; 85% in assay [5]; 0% in assay [6]; 4% in assay [7]; 4% in assay [8].

B22: VK3-20 peptide No 91 QYGSSPRTF (peptide)
peptide: QYGSSPRTF
In the case of B22, the Bond results in assay [1] was found to be 1%; in assay [2] it was 2%; in assay [3] it was 65%; in assay [4] it was 0%; in assay [5], 1%; in assay [6], 1%. Besides, the Bond results in assay [7] was 1%.
